Experimental data: publication PMC8249609 (2021)

Target: T1, AT1 receptor, residues 1-318, with N-terminal Flag-tag and BRIL (Flag-BRIL-AT1) (human (by the printed RefSeq …, UniProt P30556 1-318))
T1 chain: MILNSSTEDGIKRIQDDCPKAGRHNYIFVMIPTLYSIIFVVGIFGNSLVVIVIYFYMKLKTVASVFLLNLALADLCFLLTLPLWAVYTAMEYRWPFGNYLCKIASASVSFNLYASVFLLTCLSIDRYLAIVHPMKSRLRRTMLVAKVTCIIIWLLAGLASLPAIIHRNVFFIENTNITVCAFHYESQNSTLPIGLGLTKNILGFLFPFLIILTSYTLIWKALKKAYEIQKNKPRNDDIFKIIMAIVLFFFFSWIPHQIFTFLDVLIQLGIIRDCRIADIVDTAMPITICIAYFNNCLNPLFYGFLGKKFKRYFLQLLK
Assay: SPR

B1: cartilage oligomeric matrix protein with a C-terminal His-tag (COMP-His) (natural protein)
chain: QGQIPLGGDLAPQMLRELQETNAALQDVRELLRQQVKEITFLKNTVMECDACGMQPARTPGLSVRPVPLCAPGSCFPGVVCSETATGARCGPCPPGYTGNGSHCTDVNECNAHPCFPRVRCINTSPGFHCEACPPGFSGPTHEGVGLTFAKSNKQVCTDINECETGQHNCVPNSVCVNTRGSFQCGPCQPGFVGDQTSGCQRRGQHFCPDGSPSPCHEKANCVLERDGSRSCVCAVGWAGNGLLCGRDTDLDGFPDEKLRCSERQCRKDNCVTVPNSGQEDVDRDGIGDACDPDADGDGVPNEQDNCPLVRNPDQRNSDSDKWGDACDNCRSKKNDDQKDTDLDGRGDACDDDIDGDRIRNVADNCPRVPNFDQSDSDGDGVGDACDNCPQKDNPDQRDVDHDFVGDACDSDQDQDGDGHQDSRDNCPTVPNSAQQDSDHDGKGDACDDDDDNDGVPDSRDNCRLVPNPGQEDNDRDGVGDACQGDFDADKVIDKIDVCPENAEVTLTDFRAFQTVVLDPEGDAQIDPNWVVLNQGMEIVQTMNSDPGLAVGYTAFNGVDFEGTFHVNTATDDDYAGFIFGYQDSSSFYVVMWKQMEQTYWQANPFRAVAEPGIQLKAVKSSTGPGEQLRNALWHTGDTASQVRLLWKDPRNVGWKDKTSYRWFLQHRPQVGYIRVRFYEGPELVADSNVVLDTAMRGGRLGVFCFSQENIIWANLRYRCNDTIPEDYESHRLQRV
  koff: 0.000389 s⁻¹
